Series [1] concerns SD rats. The series can be described thus: toxicity in SD rats. It counts as in vivo. From the text: The toxicity of GLP1(A8G/G22E/R36G)-Fn8-p246-COL18NC1 in SD rats was also examined.
In series [2] the test system is SD rats. The series can be described thus: Intraperitoneal glucose tolerance test (IPGTT) in SD rats. The format is in vivo, SD (Sprague-Dawley) rats. On the procedure: In this figure, GLP1(A8G/G22E/R36G)-Fn8-p246-COL18NC1 is labeled as p246. In FIG. 9a, the rats were injected with saline, GLP1(A8G/G22E/R36G)-Fn8-p246-COL18NC1 at the dose of 10_nmol/kg and 20_nmol/kg, respectively. 8 hours after the administrations of the fusion protein (and control), the IPGTT experiments were conducted. The three curves indicated the glucose levels in the IPGTT for rats that received negative control (saline), GLP1(A8G/G22E/R36G)-Fn8-p246-COL18NC1 at the doses of 10_nmol/kg and 20_nmol/kg, respectively. In FIG. 9b, the rats were injected with saline, GLP1(A8G/G22E/R36G)-Fn8-p246-COL18NC1 at the dose of 20 nmol/kg. 32 hours and 102 hours after the administrations of the fusion protein (and the control), the IPGTT experiments were conducted. The three curves indicated the glucose levels in the IPGTT for rats that 32 hours and 102 hours after administration of negative control (saline), GLP1(A8G/G22E/R36G)-Fn8-p246-COL18NC1 respectively.
To evaluate the efficacy of GLP1(A8G/G22E/R36G)-Fn8-p246-COL18NC1 to reduce the glucose level in animal models, we performed the Intraperitoneal glucose tolerance test (IPGTT) in SD rats. The fusion protein GLP1(A8G/G22E/R36G)-Fn8-p246-COL18NC1 was administered on SD (Sprague-Dawley) rats by intraperitoneal injections at the dose of 10 nmol/kg and 20 nmol/kg for animals, respectively. Glucose was injected into the animals with the dose of 2 g/kg at 8 hours, 32 hours and 100 hours after the injection of the fusion protein GLP1(A8G/G22E/R36G)-Fn8-p246-COL18NC1. Blood samples were taken at various time points after injections such as 0-min, 10-min, 20-min, 30-min, 60-min and 120-min. The glucose levels within the blood samples were measured using a Accu-Chek Performa blood glucose meter (Roche) immediately. In FIG. 9a, the rats were injected with GLP1(A8G/G22E/R36G)-Fn8-p246-COL18NC1 at the dose of 10 nmol/kg and 20 nmol/kg about 8 hours before the IPGTT experiments were conducted. […] In FIG. 9b, about 32 hours and 100 hours after the rats were injected with GLP1(A8G/G22E/R36G)-Fn8-p246-COL18NC1 at the dose of 20 nmol/kg, the IPGTT experiments were conducted.

The nature of series [3]: pharmacokinetics in SD rats, sandwich ELISA (Example 15). It counts as in vivo, SD (Sprague-Dawley) rats. As to conditions: intraperitoneal, 5 nmol/kg. How it is done: To evaluate the pharmacokinetics profiles for the GLP-1 containing fusion proteins generated using the method of the invention, we purified the recombinant fusion proteins of GLP-1-Fn8-COL18NC1, GLP1(A8G/G22E/R36G)-Fn8-p246-COL18NC1 and GLP1(A8G/G22E/R36G)-Fn8-p285-COL18NC1 in PBS buffer, pH 7.2. These fusion proteins were administered into SD (Sprague-Dawley) rats by intraperitoneal injections at the dose of 5 nmol/kg for animals, respectively. Blood samples were taken at various time points after injections such as 0-min, 30-min, 1-hour, 2-hour, 4-hour, 6-hour, 8-hour, 24-hour, 48-hour, 3-day, 4-day, 5-day, 6-day and 7-day. The serum samples were centrifuged and kept at −80° C. freezer.
The GLP-1 concentrations within the samples were examined by use of the sandwich ELISA method. The rabbit polyclonal antibody against human Fibronectin at the concentration of 3 ug/ml (Ab299, Abcam company) was coated on ELISA plate for 1 hour at room temperature. Then the plate was washed by PBST buffer three times and the wells were blocked by PBS with 10% FBS for 1 hour at room temperature. The plate was washed three times before the serum samples containing GLP-1 fusion proteins were added. The serum samples could be diluted to 20-10000 folds before use. The ELISA plate was incubated with the serum samples at room temperature for 1 hour and then washed by PBST buffer five times. Then mouse monoclonal against human GLP-1 peptide antibody (sc57510, Santa Cruz Biotechnology) at the concentration of 1 ug/ml in PBST buffer was added to the wells. The plate was washed extensively after incubation of 1 hour at room temperature. The secondary antibody, […] HRP conjugated antibody (Beijing ZSGB-Bio company, ZB 5301), was added into the wells and the color was developed using TMB (3,3′,5,5′-tetramethylbenzidine, BD Biosciences, Cat 555214). The plate reader (Bio-Rad microplate reader Model 680) was utilized to obtain the OD450 readings. This method has been calibrated using purified proteins first.
The pharmacokinetics parameters were obtained by using the WinNonlin software (Table 5).

B1: GLP1(A8G/G22E/R36G)-Fn8-p246-COL18NC1: GLP-1 mutant, Fn8, pCloud p246, COL18NC1 fusion; SEQ ID NO: 16 (protein)
chain: HGEGTFTSDVSSYLEEQAAKEFIAWLVKGGGSGGGSGGGSGGGSGGGSGSGGAVPPPTDLRFTNIGPDTMRVTWAPPPSIDLTNFLVRYSPVKNEEDVAELSISPSDNAVVLTNLLPGTEYVVSVSSVYEQHESTPLRGRQKTGGGGSGGGSGSGSESGSGGGSTSSGTGSETESPGSGSESGSGPSSAGSGSGSESGSGSGSSGPGSTGGSGSESGSGPGSSGTGGTATGSGSESGSGPGSSGPGSTGSGSGSESGSGSGSSGTGSTGGSGSESGSGPGSPRPGSTGTGSGSESGSGPGSSERGSAGGSGSESGSGTSESSASGSTGGSGSESGSGSESGSGSGSESGSGPESPGSGGSGSESGSGTSGSTGSGSESGSGGGSGGGSGGGASSGVRLWATRQAMLGQVHEVPEGWLIFVAEQEELYVRVQNGFRKVQLEARTPLPRG
For the molecule B1, the “unacceptable adverse effects such as significant weight loss and fever” value in the series on SD rats [1] (repeated doses of 5 nmol/kg every three days for four weeks) is reported as “did not induce unacceptable adverse effects”. For the same molecule, in the series with SD rats [1] (single dose of 30 nmol/kg), the “unacceptable adverse effects such as significant weight loss and fever” value is “did not induce unacceptable adverse effects”. In addition, the “glucose level in IPGTT” value in the series with SD rats [2] (10 nmol/kg intraperitoneal, about 8 hours before IPGTT, glucose 2 g/kg) is listed as “can efficiently reduce the glucose level”. In the series on SD rats [2] (20 nmol/kg intraperitoneal, about 8 hours before IPGTT, glucose 2 g/kg), the “glucose level in IPGTT” value was “can efficiently reduce the glucose level”. In addition, the “glucose level in IPGTT” value in the series on SD rats [2] (20 nmol/kg, 100 hours after the injection) was “can still reduce the glucose level significantly”. For the same molecule, in the series on SD rats [2] (single dose 20 nmol/kg, IPGTT about 32 hours and 100 hours after injection), the “glucose-reducing activity in IPGTT” value is “can maintain its glucose-reducing activity in vivo for an extended period of time”. In series [3] (Rats), this molecule registered an AUCall of 301.2 µg·h/mL, a CL/F of 2.03 mL/h/kg, a Cmax of 5730 ng/mL and a T½ of 30.8 h. Also, the Vss in series [3] (Rats) came to 0.09023 L/kg. The molecule also yielded a half life in series [3] (SD rats) of 30.8 h.

For orientation: CL/F means the apparent clearance, not corrected for the fraction that reaches the circulation. A word on the Cmax: it is the maximum level reached in the sampled fluid or tissue.

The values above are taken from US10246503B2, “Method of improving the pharmacokinetic profile of a therapeutic polypeptide and the use thereof” (BEIJING ANXINHUAIDE BIOTECH. CO., LTD, priority 2012, dated 2019).
